The values below come from article PMC6801465, “Efficient Epidermal Growth Factor Receptor Targeting Oligonucleotide as a Potential Molecule for Targeted Cancer Therapy”.

The target in data set [1] is T1, EGFR recombinant protein (Sino Biological 10001-H08H) (human, UniProt P00533 25-645). Briefly: ELONA; Binding buffer: serum-free DMEM + 100 ug/mL tRNA; aptamers denatured 95 C 5 min, snap cooled on ice 10 min; ELONA 1 h (temperature not given); flow cytometry Kd. Conditions: protein: commercial, label: 5'-biotin (ELONA). Background: A flow cytometer gives signals particle by particle.

The target of data set [2] is T1, EGFR recombinant protein (Sino …). In words: ELONA; 100 nM aptamer; Binding buffer: serum-free DMEM + 100 ug/mL tRNA; aptamers denatured 95 C 5 min, snap cooled on ice 10 min; ELONA 1 h (temperature not given); flow cytometry Kd. Conditions: protein: commercial; label: 5'-biotin (ELONA).

With UGCUUUGAUGUCGAUUCGACAGGAGGC (XNA, 2'-OMe on U, G, C; all A (positions 8, 14, 19, 21, 24) are DNA) [CL-4RNV616], the Kd (in general, a measure of binding affinity in units of concentration) in data set [1] (5'-FAM (cells)) stood at 18.2 nM.

As for UGCUUUGAUGUCGAUUCGACAGGAGGC (structured_RNA, none (all RNA)) [CL-4RNV617], in data set [2], the binding result was “no binding”.

TGCTTTGATGTCGATTCGACAGGAGGC (structured_DNA, none (all DNA)) [CL-4RNV618]: in data set [2], the binding result is “no binding”.

Take GCCUUAGUAACGUGCUUUGAUGUCGAUUCGACAGGAGGC (XNA, 2'-F on all C and U; A and G are RNA) [CL-4]: in data set [1], the equilibrium dissociation constant (Kd) turned out to be 13.3 nM.
